{"source": "paper PMC2885523", "target": "MP81, in vitro-synthesized, [35S]-labeled (T. brucei)", "assay": "co-IP"}
{"substance": "TbTUT4-MD (TbTUT4 TUTase with grafted RET2 middle domain), in vitro-synthesized, [35S]-labeled (from UniProt Q381M1;Q86MV5)", "values": [{"measurement": "fold increase of immunoprecipitation on addition of MP81", "result": 2, "unit": "fold"}]}
